Assay results published in publication PMC4877808.

Assays:
[1] = target: His-tagged recombinant TbHpHbR (T. brucei haptoglobin-hemoglobin complex receptor, without the signal sequence) (Trypanosoma brucei brucei GUTat 3.1); test: SPR; quantitative: Biacore X, His-tagged receptor immobilised on CM5 (rTcHpHbR 800 RU, rTbHpHbR 480 RU), 30 μl/min, free-Hb and free-Hp 0.0001-10 μM; Kd = dissociation rate constant / association rate constant
[2] = target: His-tagged recombinant TcHpHbR (T. congolense haptoglobin-hemoglobin complex receptor, without the signal sequence) (Trypanosoma congolense IL3000); test: as above

Row | Molecule | Kd [1] [nM] | Kd [2] [nM]
1 | bovine hemoglobin (free-Hb), from bovine erythrocytes (from UniProt P01966 1-142; P02070 1-145) (ligand) | 5300 | 20.5
2 | haptoglobin (free-Hp) (ligand) chain 1: VETGSEATADSCPKAPEIANSHVEYSVRYQCDKYYKLHAGNGVYTFNNKQWINKDIGQQLPECEEDDSCPEPPKIENGYVEYLVRYQCKPYYTLRTCGDGVYTFNSKKQWINKNIGQKLPECEAVCGKPKHPVDQVQ chain 2: IIGGSLDAKGSFPWQAKMVSQHNLISGATLINERWLLTTAKNLYLGHSSDKKAKDITPTLRLYVGKNQLVEVEKVVLHPDHSKVDIGLIKLRQKVPVNDKVMPICLPSKDYVKVGRVGYVSGWGRNENFNFTEHLKYVMLPVADQDKCVKHYEGVDAPKNKTAKSPVGVQPILNENTFCVGLSKYQDDTCYGDAGSAFVVHDKEDDTWYAAGILSFDKSCAVAEYGVYVKVTSILDWVRKTIANN | 1800 | 220
